Results published in patent publication US12091399B2, “Phenyltetrazole derivatives as plasma kallikrein inhibitors” (Boehringer Ingelheim International GmbH, priority 2018, dated 2024).

How the values were obtained:
[1] = test system: Cc1cc(=O)oc2cc(NC(=O)[C@H](CCCNC(=N)N)NC(=O)[C@H](C)NC(=O)[C@H](CCC(=O)OCc3ccccc3)NC(=O)OC(C)(C)C)ccc12; assay: Inhibition of FXIa (Ki); type: biochemical, human; settings: other: substrate KM, enzyme FXIa; pH 7.8; 24.0 °C
Method: (§1) The ability of compounds of formula (I) to inhibit plasma kallikrein (PKK), Factor XIIa (FXIIa), Factor XIa (FXIa), Factor Xa (FXa), Factor IIa (alpha-thrombin; FIIa), plasmin, trypsin, tissue kallikrein 1 (TK1), Factor Vila (FVIIa), or FVIIa complexed with Tissue Factor, phospholipids and CaCl2) (FVIIa/TF/PL/CaCl2) was determined using the following biochemical assays in assay buffer (100 mM Tris, 150 mM NaCL, adjusted to a pH of 7.8 with HCl, and containing 0.1% (w/v) BSA and 0.05% (v/v) Tween20) in the presence of 1% (v/v) DMSO:
(§2) Human FXIa (0.5 nM or 0.016 U/mL; Enzyme Research Laboratories) was incubated at 24° C. with 0.25 mM fluorogenic substrate Boc-Glu(OBzl)-Ala-Arg-AMC.HCl (11575 from Bachem) and various concentrations of the test compound in assay buffer. Measurements were performed in a kinetic interval every 2nd minute for 16 min using a Spectramax M5 (Molecular Devices) with the following settings of the wavelength excitation of 350 nm and wavelength emission of 450 nm.
The pIC50 values were then fitted using a four-parametric fitting procedure using GraphPad Prism (version 6; GraphPad Software, Inc.). Respective Ki values were obtained by correction of the IC50 values for the respective KM value of the used substrate (see Table A for the obtained KM values of the used substrates) using the following formula: […]

[2] = test system: Cc1cc(=O)oc2cc(NC(=O)[C@H](CCCNC(=N)N)NC(=O)[C@H](Cc3ccccc3)NC(=O)[C@@H]3CCCN3)ccc12; assay: Inhibition of PKK (Ki), kinetic assay; type: biochemical, human; settings: other: substrate KM, enzyme PKK; pH 7.8; 24.0 °C
Method: as §1
as §2, with “PKK (1.78” for “FXIa (0.5”, “0.025” for “0.016”, “H-Pro-Phe-Arg-AMC (11295” for “Boc-Glu(OBzl)-Ala-Arg-AMC.HCl (11575”, “nm. The number of the compound corresponds to the number of the Example in the experimental section.” for “nm.”
The pIC50 values were then fitted using a four-parametric fitting procedure using GraphPad Prism (version 6; GraphPad Software, Inc.). […]

Sequence of Human PKK (Homo sapiens) (chain, as listed by the source): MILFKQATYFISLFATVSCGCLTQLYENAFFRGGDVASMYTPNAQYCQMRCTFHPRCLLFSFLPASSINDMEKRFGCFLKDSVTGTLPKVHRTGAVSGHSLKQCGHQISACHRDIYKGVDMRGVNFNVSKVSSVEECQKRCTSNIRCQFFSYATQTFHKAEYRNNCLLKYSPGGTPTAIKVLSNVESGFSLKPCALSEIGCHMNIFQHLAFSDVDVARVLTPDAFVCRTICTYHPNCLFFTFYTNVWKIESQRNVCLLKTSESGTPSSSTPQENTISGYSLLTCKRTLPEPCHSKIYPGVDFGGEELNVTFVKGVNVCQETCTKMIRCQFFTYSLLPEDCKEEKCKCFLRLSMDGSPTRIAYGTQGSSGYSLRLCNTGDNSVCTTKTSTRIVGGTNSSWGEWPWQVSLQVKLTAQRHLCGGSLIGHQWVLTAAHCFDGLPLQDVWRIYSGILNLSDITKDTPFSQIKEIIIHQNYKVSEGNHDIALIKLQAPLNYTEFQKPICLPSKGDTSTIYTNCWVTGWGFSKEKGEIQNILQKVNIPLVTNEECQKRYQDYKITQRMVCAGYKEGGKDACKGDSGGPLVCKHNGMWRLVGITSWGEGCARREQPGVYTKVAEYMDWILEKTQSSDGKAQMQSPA

Row | Substance | Km [1] [µM] | Km [2] [µM]
1 | Human FXIa (Homo sapiens) | 290 | 
2 | Human PKK (Homo sapiens) |  | 160
